Reference: US20250340630A1 (SICHUAN KELUN BIOTECH BIOPHARMACEUTICAL, published 2025)
Where two headings read alike, the source gives them in different places.

B1: mouse antibody 2C6.9 (antibody, V domains shown)
VH: QVQLKESGPGLVAPSQSLSITCTVSGFSLTRYGVSWVRQPPGKGLEWLGVIWGDGNTNFHSFLKSRLSISKDSSKSQVFLKLNSLQTDDTATYYCARVNFGNALDYWGQGTSVTVSS
VL: DIVMTQSPSSLTVTAGEEVTMSCKSSQSLLNSGNQKNYLTWYQQKPGQPPKLLIYWASTRDSGVPDRFTGSGSGTDFTLTISSVQSEDLAVYYCQNDFIFPLTFGAGTKLELK
notes: Purified from hybridoma; also called 2C6.9.2
B2: humanized antibody 1E9.2-hz11 (antibody, human IgG1, kappa, V domains shown)
VH: EVQLVESGGGLVKPGGSLRLSCAASGFSFSNSAMSWVRQAPGKGLEWVSTISSGDSYTYYADSVKGRFTISRDNAKNSLYLQMNSLRAEDTAVYYCARQGYGNALDYWGQGTLVTVSS
VL: DIVMTQSPDSLAVSLGERATINCKSSQSLLNSGNQKNYLTWYQQKPGQPPKLLIYWSSTRESGVPDRFSGSGSGTDFTLTISSLQAEDFAVYYCQNDYYYPLTFGGGTKVEIKR
notes: human IgG1 / kappa
B3: humanized antibody 2C6.9-hz21 (antibody, human IgG1, kappa, V domains shown)
VH: QVQLQESGPGLVKPSETLSLTCTVSGFSLTRYGVSWIRQPPGKGLEWIGVIWGEGNTNYNPSLKSRVTISKDSSKSQVSLKLSSVTAADTAVYYCARVNFGNALDYWGQGTLVTVSS
VL: DIVMTQSPDSLAVSLGERATINCKSSQSLLNSGNQKNYLTWYQQKPGQPPKLLIYWASTRDSGVPDRFSGSGSGTDFTLTISSLQAEDVAVYYCQNDFIFPLTFGGGTKVEIKR
notes: human IgG1 / kappa; also called 2C6.9.2hz21
B4: humanized antibody 2C6.9-hz11 (antibody, human IgG1, kappa, V domains shown)
VH: QVQLQESGPGLVKPSETLSLTCTVSGFSLTRYGVSWIRQPPGKGLEWIGVIWGDGNTNYNPSLKSRVTISKDSSKSQVSLKLSSVTAADTAVYYCARVNFGNALDYWGQGTLVTVSS
VL: DIVMTQSPDSLAVSLGERATINCKSSQSLLNSGNQKNYLTWYQQKPGQPPKLLIYWASTRDSGVPDRFSGSGSGTDFTLTISSLQAEDVAVYYCQNDFIFPLTFGGGTKVEIKR
notes: Human IgG1 / kappa constant regions; also called 2C6.9.2hz11
B5: IMAB362 (antibody, V domains shown)
VH: QVQLQQPGAELVRPGASVKLSCKASGYTFTSYWINWVKQRPGQGLEWIGNIYPSDSYTNYNQKFKDKATLTVDKSSSTAYMQLSSPTSEDSAVYYCTRSWRGNSFDYWGQGTTLTVSS
VL: DIVMTQSPSSLTVTAGEKVTMSCKSSQSLLNSGNQKNYLTWYQQKPGQPPKLLIYWASTRESGVPDRFTGSGSGTDFTLTISSVQAEDLAVYYCQNDYSYPFTFGSGTKLEIKR

Tests used:
human Claudin18.2 [1] = molecular target: T1, human Claudin18.2 (human, UniProt P56856-2 1-261); experiment: flow cytometry on Ba/F3-Claudin18.2 cells, purified mouse antibody
T1 construct: whole, on cells; Four-transmembrane protein, always presented on cells (transfected lines or NUGC-4 with endogenous expression); also called CLDN18.2
Procedure: (§1) The affinity of the candidates to Claudin18.2 was measured using FACS. […] Ba/F3-Claudin18.1 and Ba/F3-Claudin18.2 cells were incubated with the purified mouse antibodies at various concentrations on ice for 30 min and mouse IgG was used as negative control (Thermo Fisher, Cat: 31903), followed by washing with FACS buffer (PBS+2% FBS) twice.

human Claudin18.1 [2] = molecular target: T2, human Claudin18.1 (human, UniProt P56856 1-261); experiment: flow cytometry on Ba/F3-Claudin18.1 cells
T2 construct: whole, on cells; Presented on transfected cells; also called CLDN18.1
Procedure: as §1

human Claudin18.1 [3] = molecular target: T2, human Claudin18.1; experiment: flow cytometry, HEK293T-human Claudin 18.1 cells compared with HEK293T cells
Procedure: The specificity of candidate antibodies was detected by FACS. […] After washing twice with PBS, the cells were resuspended with PBS containing 1% BSA. 300,000 cells for each cell line were added with the candidate antibodies at a final concentration of 1000 nM, mixed well, and incubated for 1 h at 4° C., protected from light. Then the cells were washed for three times with PBS and FITC-labeled anti-human Fc secondary antibody (BioLegend, 409322) was added, followed by 0.5h of incubation at 4° C. in the dark. Detection was performed by flow cytometry (Beckman, Cytoflex) after washing with PBS for three times.

human Claudin18.2 [4] = molecular target: T1, human Claudin18.2; experiment: flow cytometry (IntelliCyt) on Ba/F3-Claudin18.2 cells
From the text: In order to evaluate the anti-Claudin18.2 humanized antibodies, codon optimized cDNAs of the heavy chains and the light chains of the candidate humanized antibodies from Example 6 were synthesized and ligated into pcDNA3.4 (by Nanjing Genscript Biotech Corporation). Expi293F cells (purchased from Thermo Incorporation) were co-transfected with pcDNA3.4 coding the heavy chain and light chain of each antibody. The antibodies were purified from the supernatant using protein A (MabSelect SuRe, GE). The affinity of the humanized antibodies to Claudin18.2 was determined using Ba/F3-Claudin18.2 cells which over-expressed human Claudin18.2. Ba/F3-Claudin18.2 cells (60000 in 10 ul buffer) were incubated with purified humanized antibodies on ice for 30 min, followed by washing with buffer (PBS+2% FBS) twice and addition of Alexa647-labeled goat-anti-human IgG Fc antibody (1:500 dilution). The cells were incubated on ice for another 30 min and analyzed by IntelliCyt.

human Claudin18.2 [5] = molecular target: T1, human Claudin18.2; experiment: cell-based or functional assay
human Claudin18.2 [6] = molecular target: T1, human Claudin18.2; experiment: cell-based or functional assay; remark: listed apart in the source
human Claudin18.2 [7] = molecular target: T1, human Claudin18.2; experiment: cell-based or functional assay; remark: listed apart in the source
human Claudin18.2 [8] = molecular target: T1, human Claudin18.2; experiment: cellular ELISA on NUGC-4 cells (endogenous human Claudin18.2)
Procedure: (§2) The cells were resuspended and adjusted to 2×10⁵/mL and 100 μL of the resuspension was plated into 96 well plate and incubated overnight at 37° C. The next day, the media was removed, and the plate was washed with PBS once. 100 μL/well 4% formaldehyde was added to the plate. After 30 min of incubation at room temperature, formaldehyde was removed, followed by washing twice with PBS. Blocking buffer (PBS containing 2% BSA) was then added to the plate at 100 μL/well, and incubated at 37° C. for 2 h. After removal of blocking buffer, 100 μL/well of serially diluted antibodies (starting from 1 μM, with 4-fold dilution, for a total of 11 concentrations) were added to the corresponding wells, which were incubated at 37° C. for 2h afterwards. The plate was washed with 250 μL PBST for 5 times, and was allowed to stand for 2 min each time. […] The plate was incubated at 37° C. for 1 h and washed with 250 μL PBST 6 times, wherein the plate was allowed to stand for 2 min each time. 100 μL/well of TMB solution (Thermo, 34029) was added. The reactions were incubated at 37° C. for 20 min and stopped with 50 μL 2 mol/L H₂SO₄. The absorbance at 450 nm was read on a plate reader (MD, SpectraMax M2) and the results were subjected to curve fitting by Graphpad Prism.

human Claudin18.2 [9] = molecular target: T1, human Claudin18.2; experiment: cellular ELISA on fixed L929-Claudin 18.2 cells
Procedure: as §2, with “Human Claudin18.2 is a four transmembrane protein and has a complex structure. Cellular ELISA was thus carried out to maintain the structure of Claudin18.2. […] The cells” for “The cells”, “was added. […] The absorbance” for “was added. The reactions were incubated at 37° C. for 20 min and stopped with 50 μL 2 mol/L H₂SO₄. The absorbance”

human Claudin18.2 [10] = molecular target: T1, human Claudin18.2; experiment: cellular ELISA on fixed L929-Claudin 18.2 cells; remark: listed apart in the source
Procedure: as §2, with “Human Claudin18.2 is a four transmembrane protein and has a complex structure. Cellular ELISA was thus carried out to maintain the structure of Claudin18.2. […] The cells” for “The cells”

human Claudin18.2 [11] = molecular target: T1, human Claudin18.2; experiment: cell-based or functional assay; remark: listed apart in the source
human Claudin18.2 [12] = molecular target: T1, human Claudin18.2; experiment: cell-based or functional assay; remark: listed apart in the source
human Claudin18.2 [13] = molecular target: T1, human Claudin18.2; experiment: cellular ELISA on fixed L929-Claudin 18.2 cells; remark: listed apart in the source
Procedure: as §2, with “Human Claudin18.2 is a four transmembrane protein and has a complex structure. Cellular ELISA was thus carried out to maintain the structure of Claudin18.2. […] The cells” for “The cells”, “was added. […] The absorbance” for “was added. The reactions were incubated at 37° C. for 20 min and stopped with 50 μL 2 mol/L H₂SO₄. The absorbance”

human Claudin18.2 [14] = molecular target: T1, human Claudin18.2; experiment: flow cytometry on HEK293T-Claudin 18.2 cells
Procedure: HEK293T-Claudin 18.2 cells were detached and centrifuged, followed by washing for twice with PBS. And then the cells were resuspended in PBS containing 1% BSA and were plated into 96-well tip bottom plate at 300000 cells per well in a volume of 50 μl for 20 wells in total. […] Human IgG was served as negative control. The reactions were mixed well and incubated for 1 h at 4° C. in the dark. Following by three times of washing with PBS, the FITC-labelled anti-human Fc secondary antibody (Biolegend, 409322) was added and incubated for 0.5h in the dark. Detection was performed by flow cytometry (Beckman, Cytoflex) after washing for three times with PBS.

human Claudin18.2 [15] = molecular target: T1, human Claudin18.2; experiment: flow cytometry on Ba/F3-Claudin18.2 cells

Binder | binding result (human Claudin18.1 [3]) | ADCC EC50 on HEK293T-Claudin 18.2 cells (NK92MI-CD16a, LDH) (human Claudin18.2 [5]) [ng/mL] | ADCC EC50 on KATOIII-Claudin 18.2 cells (NK92MI-CD16a, LDH) (human Claudin18.2 [5]) [ng/mL] | ADCC EC50 on L929-Claudin 18.2 cells (NK92MI-CD16a, LDH) (human Claudin18.2 [5]) [ng/mL] | ADCC EC50 on NUGC-4 cells (NK92MI-CD16a, LDH) (human Claudin18.2 [5]) [ng/mL] | ADCC EC50, Ba/F3-Claudin18.2 target cells, NK-92MI_mCD16 effectors (human Claudin18.2 [7]) [µg/mL] | ADCC Max killing rate %, Ba/F3-Claudin18.2 target cells (human Claudin18.2 [7]) [%] | EC50 (human Claudin18.2 [8]) [nM] | EC50 (human Claudin18.2 [9]) [nM] | EC50 (human Claudin18.2 [10]) [nM] | Max Signal Value (OD450) (human Claudin18.2 [10]) | CDC EC50 on HEK293T-Claudin 18.2 cells (guinea pig serum, CellTiter-Glo) (human Claudin18.2 [11]) [ng/mL] | ADCC EC50 on HEK293T-Claudin 18.2 cells (NK92MI-CD16a, LDH) (human Claudin18.2 [12]) [ng/mL] | EC50 (human Claudin18.2 [13]) [nM] | EC50 (human Claudin18.2 [14]) [nM] | further results
B1 |  |  |  |  |  |  |  |  |  |  |  |  |  |  |  | EC50 (human Claudin18.2 [1]): 10.6 nM; Max MFI (human Claudin18.2 [1]): 6.11e+06 MFI; binding result (human Claudin18.1 [2]): no binding
B2 | no binding (tested: 1000 nM) | 52.8 | 3.59 | 2.39 | 134 | 0.041 | 60.2 | 0.413 | 0.1 | 0.09 | 0.8 |  |  |  |  | Max MFI (human Claudin18.2 [4]): 1.13e+07 MFI; CDC activity on HEK293T-Claudin 18.2 cells, fold against IMAB362 (human Claudin18.2 [6]): 3.5 fold
B3 | no binding (tested: 1000 nM) |  |  |  |  |  |  |  |  | 0.18 | 0.8 | 1360 | 67.7 | 0.12 | 5.77 | 
B4 |  |  |  |  |  |  |  |  |  | 0.16 | 0.8 |  |  |  |  | 
B5 |  | 33.6 | 10.1 | 78.1 | 1220 | 0.351 | 54.2 | ~664 | 0.18 |  |  | 3320 | 57.7 | 0.15 | 8.22 | EC50 (human Claudin18.2 [15]): 18 nM
